Assay results: PMC9160799, “PET Imaging of Acidic Tumor Environment With ^89Zr-labeled pHLIP Probes” (Frontiers in Oncology, 2022)

Columns and labels:
[1] = assay type: in vitro ADME, human
Method: A potential degradation of the compounds was investigated by serum stability assay. For this, 100 µL of the prepared PBS solution (containing 1.2 nmol of pHLIP and 7.4 MBq/200 µCi) was added to 900 µL of human serum (heat inactivated from Millipore Sigma) and incubated for seven days at 37°C. The release of free ^89Zr^4+ was measured by radio instant thin-layer chromatography (as described above) and the degradation of the whole construct was checked by radio high-performance liquid chromatography (HPLC). The analytical reverse-phase HPLC was performed on a Shimadzu system equipped with a Flow Count PIN diode radiodetector from BioScan, a DGU-20A degasser, two LC-20AB pumps, and an SPD-M20A photodiode array detector. A BetaBasic 18 column (150 Å, 5.0 µm, 4.6×150 mm, Thermo Scientific) was used with water (+ 0.1% trifluoroacetic acid) and acetonitrile (+ 0.1% trifluoroacetic acid) as solvents. The gradient started at 5% acetonitrile and increased to 95% over 15 minutes at a constant flowrate of 1 mL/min. The radiochemical purities of all ^89Zr-radiolabeled pHLIP conjugates were greater than 90% over the course of seven days.

[2] = Post-mortem biodistribution, RM-1 tumor model; assay type: in vivo, male athymic nude mice; settings: male, athymic nude, mouse, in vivo, iv, 1.2 nmol, total radioactivity
Method: (§1) The media were provided by the MSK Media Preparation Core. […] Another aliquot was diluted with the medium so that 50 µL contained 1×10^6 cells.
(§2) The imaging and biodistribution studies were performed with male (RM-1 model) and female (4T1 model) athymic nude mice and the kidney-blocking experiments were performed with female SCID mice received from Charles River Laboratories (Stone Ridge, NY). After arrival, the mice were kept in the MSK vivarium for one week before any experimental handling was performed. The animals were allowed free access to water and food, and all animal care and experimental procedures were approved by the Institutional Animal Care and Use Committee (IACUC). For the subcutaneous allografts, a 1-to-1 ratio of Corning Matrigel Matrix and the cell solution was prepared and stored on ice for the injections. Each mouse received a subcutaneous injection of 100 µL (50 µL cell solution, viability > 90%, + 50 µL Matrigel) into the flank on the level of the right shoulder. The injections were performed under anesthesia (2% isoflurane, Baxter Healthcare, Deerfield, IL, USA).
(§3) The mice were intravenously injected (tail vein) with the radiolabeled pHLIP conjugates (1.2 nmol, 7.4 MBq/200 µCi, 100 µL, in sterile filtered PBS). The activity of the syringe prior to injection and after injection was used to determine the percent of injectate administered.
(§4) For the biodistribution studies the tumor-bearing mice were randomized before the injections. Only mice with suitable tumors (150–300 mm^3) were utilized. An exception was made for the 120-hour timepoint, for which only mice with smaller tumors (150 mm^3) were selected. The mice were grouped in cohorts of four. At the respective timepoint, the mice were euthanized (by CO2 asphyxiation, followed by cervical dislocation) and their blood was collected by cardiac puncture as a terminal procedure, followed by quick removal of the tumors. After this, the other organs/samples were collected. […] The exact activities of all samples of one mouse were determined by an Capintec® CRC-55tR dose calibrator. These decay-corrected measurements were used to determine a calibration factor and calibrate all counts to the corresponding activities. Activity concentrations were calculated as percentage injected dose per tissue weight (%ID/g wet tissue). All data was processed and visualized using Origin 8.5.

in vivo = assay: in vivo; parameters: species or system female athymic nude mice; settings: female, athymic nude, mouse, iv, 1.2 nmol, total radioactivity
Method: as §1, §2, §3, §4

4T1 tumor allografts [3] = assay: in vivo; parameters: species or system female athymic nude mice; settings: mouse, iv
Method: as §1, §2, §3, §4

4T1 tumor allografts [4] = test system: 4T1 tumor allografts; parameters: species or system female athymic nude mice; settings: mouse, in vivo, iv
RM-1 tumor allografts = assay: Post-mortem biodistribution, RM-1 tumor model; assay type: in vivo, male athymic nude mice; settings: mouse, in vivo, iv, 1.2 nmol, 48 h
Method: as §1, §2, §3, §4

Compound: CC(=O)N(O)CCCCCNC(=O)CCC(=O)N(O)CCCCCNC(=O)CCC(=O)N(O)CCCCCNC(=O)CCN1C(=O)CC(SC[C@@H](NC(=O)[C@@H](C)N)C(=O)N[C@H](CC(=O)O)C(=O)N[C@H](CC(=O)O)C(=O)N[C@H](CCC(N)=O)C(=O)N[C@H](CC(N)=O)C(=O)N2CCC[C@@H]2C(=O)N[C@H](Cc2c[nH]c3ccccc23)C(=O)N[C@H](CCCNC(=N)N)C(=O)N[C@H](C)C(=O)N[C@H](Cc2ccc(O)cc2)C(=O)N[C@H](CC(C)C)C(=O)N[C@H](CC(=O)O)C(=O)N[C@H](CC(C)C)C(=O)N[C@H](CC(C)C)C(=O)N[C@H](Cc2ccccc2)C(=O)N2CCC[C@@H]2C(=O)N[C@@H](C(=O)N[C@H](CC(=O)O)C(=O)N[C@@H](C(=O)N[C@H](CC(C)C)C(=O)N[C@H](CC(C)C)C(=O)N[C@H](CC(C)C)C(=O)N[C@H](CC(=O)O)C(=O)N[C@H](CC(C)C)C(=O)N[C@H](CC(C)C)C(=O)N[C@H](Cc2c[nH]c3ccccc23)C(=O)O)[C@H](C)O)[C@H](C)O)C1=O (some centres unmarked) (89Zr complex, metal not drawn) [DFO-Cys-Var3]
- radiochemical purity after incubation in human serum [1]: > 90%
- tissue uptake at 48 h ([2]; RM-1, male athymic nude mice, 48 h p.i., i.v. 1.2 nmol, 7.4 MBq, gamma counting, mean ± S.D., n=4, read-out: Brain uptake): 0.08 ± 0.01 %ID/g
- tissue uptake at 48 h ([2]; RM-1, male athymic nude mice, 48 h p.i., i.v. 1.2 nmol, 7.4 MBq, gamma counting, mean ± S.D., n=4, read-out: Pancreas uptake): 0.7 ± 0.1 %ID/g
- tissue uptake at 48 h ([2]; Tibia uptake): 1.4 ± 0.1 %ID/g
- tissue uptake at 4 h (in vivo; Blood uptake): 16.1 ± 0.6 %ID/g
- tissue uptake at 24 h (in vivo; Blood uptake): 5.8 ± 0.5 %ID/g
- tissue uptake at 48 h (in vivo; Blood uptake): 2.2 ± 0.1 %ID/g
- tissue uptake at 72 h (in vivo; Blood uptake): 1 ± 0.1 %ID/g
- tissue uptake at 120 h (in vivo; Blood uptake): 0.2 ± 0.05 %ID/g
- tissue uptake at 4 h (in vivo; Heart uptake): 4.2 ± 0.5 %ID/g
- tissue uptake at 24 h (in vivo; Heart uptake): 3 ± 0.4 %ID/g
- tissue uptake at 48 h (in vivo; Heart uptake): 2.6 ± 0.1 %ID/g
- tissue uptake at 72 h (in vivo; Heart uptake): 1.9 ± 0.2 %ID/g
- tissue uptake at 120 h (in vivo; Heart uptake): 1.6 ± 0.3 %ID/g
- tissue uptake at 4 h (in vivo; Kidneys uptake): 19.8 ± 3.3 %ID/g
- tissue uptake at 24 h (in vivo; Kidneys uptake): 44.3 ± 6.5 %ID/g
- tissue uptake at 48 h (in vivo; Kidneys uptake): 47.6 ± 11.5 %ID/g
- tissue uptake at 72 h (in vivo; Kidneys uptake): 46.3 ± 8.3 %ID/g
- tissue uptake at 120 h (in vivo; Kidneys uptake): 35.3 ± 5.9 %ID/g
- tissue uptake at 4 h (in vivo; Liver uptake): 4.8 ± 0.4 %ID/g
- tissue uptake at 24 h (in vivo; Liver uptake): 6.1 ± 0.7 %ID/g
- tissue uptake at 48 h (in vivo; Liver uptake): 6.6 ± 0.1 %ID/g
- tissue uptake at 72 h (in vivo; Liver uptake): 6.7 ± 0.7 %ID/g
- tissue uptake at 120 h (in vivo; Liver uptake): 6 ± 0.3 %ID/g
- tissue uptake at 4 h (in vivo; Lungs uptake): 11.2 ± 2 %ID/g
- tissue uptake at 24 h (in vivo; Lungs uptake): 3.8 ± 0.9 %ID/g
- tissue uptake at 48 h (in vivo; Lungs uptake): 2.7 ± 0.3 %ID/g
- tissue uptake at 72 h (in vivo; Lungs uptake): 2 ± 0.1 %ID/g
- tissue uptake at 120 h (in vivo; Lungs uptake): 1.8 ± 0.3 %ID/g
- tissue uptake at 24 h (in vivo; Pancreas uptake): 1.8 ± 0.2 %ID/g
- tissue uptake at 48 h (in vivo; Pancreas uptake): 1.5 ± 0.4 %ID/g
- tissue uptake at 72 h (in vivo; Pancreas uptake): 1.5 ± 0.2 %ID/g
- tissue uptake at 120 h (in vivo; Pancreas uptake): 1.4 ± 0.1 %ID/g
- tissue uptake at 4 h (in vivo; Skin uptake): 2.7 ± 0.6 %ID/g
- tissue uptake at 24 h (in vivo; Skin uptake): 3.7 ± 0.4 %ID/g
- tissue uptake at 48 h (in vivo; Skin uptake): 3.9 ± 0.7 %ID/g
- tissue uptake at 72 h (in vivo; Skin uptake): 3.5 ± 0.6 %ID/g
- tissue uptake at 120 h (in vivo; Skin uptake): 3.7 ± 0.1 %ID/g
- tissue uptake at 4 h (in vivo; Spleen uptake): 2.7 ± 0.5 %ID/g
- tissue uptake at 24 h (in vivo; Spleen uptake): 4.1 ± 0.7 %ID/g
- tissue uptake at 48 h (in vivo; Spleen uptake): 5.1 ± 2 %ID/g
- tissue uptake at 72 h (in vivo; Spleen uptake): 4.3 ± 0.4 %ID/g
- tissue uptake at 120 h (in vivo; Spleen uptake): 6.1 ± 1 %ID/g
- tissue uptake at 4 h (in vivo; Tibia uptake): 1.8 ± 0.2 %ID/g
- tissue uptake at 24 h (in vivo; Tibia uptake): 1.8 ± 0.06 %ID/g
- tissue uptake at 48 h (in vivo; Tibia uptake): 1.5 ± 0.4 %ID/g
- tissue uptake at 72 h (in vivo; Tibia uptake): 1.6 ± 0.2 %ID/g
- tissue uptake at 4 h (in vivo; Tumor uptake): 5.6 ± 0.8 %ID/g
- tissue uptake at 24 h (in vivo; Tumor uptake): 9.4 ± 1.2 %ID/g
- tissue uptake at 48 h (in vivo; Tumor uptake): 9.7 ± 1.7 %ID/g
- tissue uptake at 72 h (in vivo; Tumor uptake): 9.1 ± 1 %ID/g
- tissue uptake at 120 h (in vivo; Tumor uptake): 6.8 ± 0.7 %ID/g
- (biological) blood clearance half-life (4T1 tumor allografts [3]): 16.0 ± 0.4 hours
- biological half-life for total body excretion (4T1 tumor allografts [4]): 415 ± 10 hours

Compound: CC(=O)N[C@H](C)C(=O)N[C@H](CCCCNc1c(NCCCCCN(O)C(=O)CCC(=O)NCCCCCN(O)C(=O)CCC(=O)NCCCCCN(O)C(C)=O)c(=O)c1=O)C(=O)N[C@H](CC(=O)O)C(=O)N[C@H](CC(=O)O)C(=O)N[C@H](CCC(N)=O)C(=O)N[C@H](CC(N)=O)C(=O)N1CCC[C@@H]1C(=O)N[C@H](Cc1c[nH]c2ccccc12)C(=O)N[C@H](CCCNC(=N)N)C(=O)N[C@H](C)C(=O)N[C@H](Cc1ccc(O)cc1)C(=O)N[C@H](CC(C)C)C(=O)N[C@H](CC(=O)O)C(=O)N[C@H](CC(C)C)C(=O)N[C@H](CC(C)C)C(=O)N[C@H](Cc1ccccc1)C(=O)N1CCC[C@@H]1C(=O)N[C@@H](C(=O)N[C@H](CC(=O)O)C(=O)N[C@@H](C(=O)N[C@H](CC(C)C)C(=O)N[C@H](CC(C)C)C(=O)N[C@H](CC(C)C)C(=O)N[C@H](CC(=O)O)C(=O)N[C@H](CC(C)C)C(=O)N[C@H](CC(C)C)C(=O)N[C@H](Cc1c[nH]c2ccccc12)C(=O)N[C@H](C)C(=O)O)[C@H](C)O)[C@H](C)O (89Zr complex, metal not drawn) [DFOsqa-Lys-Var3]
- tissue uptake at 48 h ([2]; Blood uptake): 0.3 ± 0.03 %ID/g
- tissue uptake at 48 h ([2]; Brain uptake): 0.06 ± 0.02 %ID/g
- tissue uptake at 48 h ([2]; Heart uptake): 1.6 ± 0.1 %ID/g
- tissue uptake at 48 h ([2]; Kidneys uptake): 82.5 ± 14.2 %ID/g
- tissue uptake at 48 h ([2]; Liver uptake): 10.8 ± 2.1 %ID/g
- tissue uptake at 48 h ([2]; Lungs uptake): 2.5 ± 0.6 %ID/g
- tissue uptake at 48 h ([2]; Pancreas uptake): 1.2 ± 0.1 %ID/g
- tissue uptake at 48 h ([2]; Skin uptake): 2.1 ± 0.07 %ID/g
- tissue uptake at 48 h ([2]; Spleen uptake): 6.4 ± 1.4 %ID/g
- tissue uptake at 48 h ([2]; Tibia uptake): 1.6 ± 0.1 %ID/g
- Tumor uptake (RM-1 tumor allografts): 12.4 ± 4.7 %ID/g
- tissue uptake at 48 h (in vivo; Blood uptake): 0.4 ± 0.01 %ID/g
- tissue uptake at 48 h (in vivo; Brain uptake): 0.04 ± 0.01 %ID/g
- tissue uptake at 48 h (in vivo; Heart uptake): 1.3 ± 0.06 %ID/g
- tissue uptake at 48 h (in vivo; Kidneys uptake): 82.5 ± 10.9 %ID/g
- tissue uptake at 48 h (in vivo; Liver uptake): 11.2 ± 1 %ID/g
- tissue uptake at 48 h (in vivo; Lungs uptake): 1.4 ± 0.2 %ID/g
- tissue uptake at 48 h (in vivo; Muscle uptake): 0.5 ± 0.04 %ID/g
- tissue uptake at 48 h (in vivo; Pancreas uptake): 0.8 ± 0.1 %ID/g
- tissue uptake at 48 h (in vivo; Skin uptake): 2.6 ± 0.4 %ID/g
- tissue uptake at 48 h (in vivo; Spleen uptake): 6.9 ± 0.6 %ID/g
- tissue uptake at 48 h (in vivo; Tibia uptake): 1.5 ± 0.2 %ID/g
- tissue uptake at 48 h (in vivo; Tumor uptake): 10.2 ± 1.2 %ID/g
